In a protein production outcome set (Wang et al. 2014) one finds protein production data, which are given here for 16 sequences.

This series can be described thus: label from the status in PepcDB records.
“MLQMRTDLMAVACGRRSADLYIENGRVLNVHSGEILSGVGVAVASGRVAYVGPSRGMIGPETQFLDAEGGILVPGYVDPHAHFDNILSPRRLAEALLPLGTTMVVNDTLAVVARFGAPGLACLRAAATSLPLHFGWTVPISGWAPELEEAGYFAGLGLTDAELDVLLADETVLGTSEFLPWRRLLAGDQRLIARLDIARRHGKCCEGHNPGARADHLQVIAAAGLTDCHEALTSAEALNRLRAGLYVVLRHGPARYDLPELASLVMKEGVDRSRLMLTPDWVPPNDLAAFGHMDHPLSAAMEAGIPPLDAYRMASLNPARYFRIEGQIGSIAPGRYADILCLNDLREPRPKWVMAQGAVVARNGVPTPDWHGLDELELPAYRPSVLHASPADFRVASAGTGDVLVPAIEIMDRTVTRRIDLHLPVKDGVVSCAGEEGRVMKMAMPHPEGGFSIGFLVGVGGCLGAMSNSLASEPYHTLVIGTSDDDMAIAYNRMIELGGGVVTVQDGRIEAQLPLPLGGFMTKASAADVGAGIDAVNQWARNNGSNLENAFLTQHFLTYVGVPFFRMTPWGIYDVRKHCFLPPILNQGSEEDAL”: the protein production result is on record as “failed”. On to “MLQQQRTNSRGEKYVIGPTGAPLTLADLPPAETQRWVIRRKAEVVAAVRGGLLSLDEACDRYKLTNDEFLSWQQSIDRHGLAGLRTTRIQQYRLEHHHHHH”, for which the protein production entry was “not failed”. The result for “MLQSINQLNPDIVVITGDLTENGFSAEYDGVKMFIDRIECKNRVLVPGNHDSKNAGYLHFEDLFENRFQTRNLGNMTIVGADSSQPDIDDGHLGRENYGWIKEAFSGENFKVFALHHHLVPIPLAGRENTVLVDAGDVLDLLNKCRVNLVLCGHCHIPHVWNLNNMLVVNAGTFCSSKTRGKTTQCFNLIQAENSEKNGNGESEKIEDGGWKVRVSRVFPQGNIEFITETVMLEHHHHHH” reads “failed”; that for “MLQVPKLTIIMPVYNTAQYLPRAFDALLKQIDKSFKLIVVDDGSTDNSVEVAQNYAYRFPYFKLIKKKNGGPSDARNVGMQYIDTPYVTFHDGDDWVDPGYTSFFIRAFEEHPDVNLVSCGYWMDYPDKKSRVVGRPEGGFLTRGETYLKLTNVFGSPMKGYSWNKAYKTAIIKKFHLQFDRDISLLEDQIFNVKYISVAKGVYYTQRPYYHYWQRKGSIIHQPNVKKVADNFRGNYRVWRRIIKTMLKDHEDEKMRKKLDRSPLRDSDVQ”, “failed”. Consider “MLRASLLCSSTSITFTPIQLFNPNSSHRFPRFELSRPVSALSRTKCHLSLLRARGKSSFLTRSTATDEAVETSSNSGLDLVEVGFLSGVHGLQGEICIKPNTDFPDLRFSKPGRRWLKQQLLGQDKIDEVELVEGRPHPAQKSWILKFRGLDDVDQVRQLVGATLLAEDDDRPELDEGEFYSRDLVGMRVLLKETGQLVGTVANIFDNGGNDLLHVLLDSSMEVCNGNAKTNQLVWIPFVDAIVPDVDLERKEMYITPPKGLLEVNMRADDRSKKERRQLEWKERKKQQKRLIAAKKKLCEMEQKHVFDGLRFGEKSQRNLLADHILNVNSTLLQKALQSIDTSSKRWNVTEEINALRARVSECNLSVSRECLSFDASKENMGDNFSFLQQGQNLFSEGKVSICLVLNDHENEEPEGENGVVSYLHALLDEEQRFIKEEDRACVPLVIVSPEHTIEALQKLFQDNDHFGFESEKIWILKEETLPVVCSSPEEPKKHKILMKSPWEILESPVGSGGVLSILASHGTTDSLSTLGINYLQVHSIETKPQPSQHYINPMLVGFVSARGAEIGIQVTEESELKNLEMTFSMKFLKRLKGKIEFEAVMKMNSHVQNVEKEWVESVPSEPNSFEFRSDIYRVLSECSSSAKICLMNITV”, for which the protein production entry is listed as “failed”. As to “MLRCSHSKGVNYINFSATGKLLVSVGVDPEHTITVWRWQEGTKVASRGGHLERIFVVEFRPDSDTQFVSVGVKHMKFWTLAGSALLYKKGVIGSMEAARMQTMLSVAFGANNLTFTGAINGDVYVWKEHFLIRLVAKAHTGPVFTMYTTLRDGLIVTGGKERPTKEGGAVKLWDQEMKRCRAFQLETGQLVECVRSVCRGKGKILVGTKDGEIIEVGEKSAASNILIDGHMEGEIWGLATHPSKDMFISASNDGTARIWDLADKKLLNKVNLGHAARCAAYSPDGEMVAIGMKNGEFIILLVNSLKVWGKKRDRKSAIQDIRISPDNRFLAVGSSEHTVDFYDLTQGTSLNRIGYCKDIPSFVIQMDFSADSKYIQVSTGAYKRQVHEVPLGKQVTEAMVIEKITWASWTSVLGDEVIGIWPRNADKADVNCACVTHDGLNIVTGDDFGLVKLFDFPCTEKFAKHKRYFGHSAHVTNIRFSYDDKYVVSTGGDDCSVFVWRCL”, the protein production entry was “failed”. “MLRIFQGRPAVTIAAVLVAASVAGCAGKAKKPTLVYEERPVELLYSTGADRLDRGNWNEAVDYFREVERQHPYSEWSRRSILMTGYAHYMGNQYAEAIGDADRFISLYPGNPSAQYAFYLKAICYFEQIVDVNRDQAATEQALAALRDVVQRYPNTEYATDARLKIDMVNDQLAGKEMAIGRWYLKNGQTLAAIGRFKAVIERHQTTSHTPEALFRLVEAYLTIGLNEEAKRNGAVLGYNFPGDRWYVDAYRLLNDNGLRPAVEPLKAGAKRNALERILSKDKEATLAPPGERKAKKGLLGPLGM”: the protein production result was “failed”. With “MLRLSAPGQLDDDLCLLGDVQVPVFLLRLGEASWALVEGGISRDAELVWADLCRWVADPSQVHYWLITHKHYDHCGLLPYLCPRLPNVQVLASERTCQAWKSESAVRVVERLNRQLLRAEQRLPEACAWDALPVRAVADGEWLELGPRHRLQVIEAHGHSDDHVVFYDVRRRRLFCGDALGEFDEAEGVWRPLVFDDMEAYLESLERLQRLPTLLQLIPGHGGLLRGRLAADGAESAYTECLRLCRRLLWRQSMGESLDELSEELHRAWGGQSVDFLPGELHLGSMRRMLEILSRQALPLD”, the protein production result was “failed”. The result for “MLRNKAFVVRLYPNAAQAERINRTLGCARFVYNHFLARRIESYRQDGKGMIYAATDKALTLLKREEGTAWLAEVDKFALQQSLRDLERAYQNFFRTAKKSGKKVGFPKFKKKRTGEAYRTQFTNNNIEIGEGKLKLPKLGWVKTRGQRDMQGKILNVTVRRIHEGHYEASVLCEVEIPYLPAAPKFAAGVDVGIKDFAIVTDGKGEFEHHANPKYYRSSLRRLRKAQKTLSRRKKGSARYGRAKTTLARIHKRVANKRQDFIHKLTTSLVREYEITCTEHLKPDNMRKNRRLALSVSDAGWGEFIRQLEYKATWYGRLVSKISPYFPSSQICHDCGFKNPAVKNLAVREWTCPNCGETHDRDENAALNIRREGLVAAGMSDTQNAHGDCIRPTSVGSGLRSENHATSVVLEHHHHHH” reads “not failed”. Take “MLRQIRRNALSNFLSLWNEAATTSLGFFWMALWAFILGYVISSLIQVLVTRRKMQQAMGEDGPRSIALGTFFGFISSSCSFSALATTRAIFNKGAGLAPSLAFMLASTNLVIELGIVIAVFLGWQFVVGEYVGGVLLILVTWLLIRLTRPRRLEAQARRKMDDGDGDGGNSDKSWKEKITSKEGWQAIAQTYVMEWQMVWKDVLIGFTVAGIISAMVPQSFFEALFIGAGGENAANPGFLAVLSQTLVGPIAAFFTFIGSMGNIPLAAVLFAQGVSFAGVMAFIFSDLVVLPVLRINASYYGWKMALYILALMLVGIVTVSLLMHYSLALLGMLPDFSGQTSMGEREFFKWNYQAVLNILFLTATAILLWFWRQGQKQHSHDHHHHDHDHGGSSLTDKVLSVLVVVALLWLAGGVVVPLF”: the protein production entry is “failed”. The result for “MLRSSAAAGKGGRILAAKQVNPTRMELTRLKKKRITAIRGHKLLKDKRDELMRQYLDLVRENMEVRKKVEAGIRSANKNFVIAKAGMSEAALNTALMAPKQEVNLEAGEKNVMSVDIPTFQYKTRTADENDIYSYGFAFTSGDLDGAVKSLADVLPDMIRLAECEKACQLMAAEIEKTRRRVNALEHVIIPETEQSIKYITMKLDENERSTQIRLMKVKDMMLEETHHYSEK” reads “failed”; that for “MLRVVSLTLVTLISAVAAAAAEPQAGDDLAICRDRQAELQARAQACDNLLNADRLAGKDKAIALSVRGNTLINKRDYARAIETLSMAVDLDPDNVIVLNLRGLAYERSGKDDLAMADYNLALQKRPTYGVPYNNRGVIHLRRGALQSALDDFNLSIKYTPKFLLGWTNRARVRTLMKDFDGAIADFAEAEKIDPAAPQIAGNRCITWGMMGKYDQAFADCNGLIEKQPKNVYAINNRADVSMMKGDLDAALKDYNSAIQINPNNVRAHSGRGQIYERRKDLAQARADYRAAAYSLTKFDELDVARARAVAQERLAALTPQAPAGATGRRVALVIGNGAYKNVHALPNPPRDSKLIANALRDVGFQTVISVSDLTRDKFFEALQTFAAEAEKADWAVVYYAGHGFEIGGVNYLVPVDAKLAADRDAEAQAVALEQVIAAVGAARKVRLVMLDACRDNPFAPTMQRTLSLKLVDKGFSNIEPGAGFMVVYAAKHGETAMDGDGGTDSPFATALAREIKEPRVEIRKLFDIVRDDVWSATRHEQQPFTYGSPPGREDFYFAAGK”, “failed”. “MLRYHMQGFSGYGVQYSPFFDNRLAVAAGSNFGLVGNGKLFILEIDRSGRIVEVNSFLTQDCLFDLAWNESHENQVLVAQGDGTLRLFDTTFKEFPIAIFKEHEREVFSCNWNLVNRQNFLSSSWDGSIKIWSPLRKQSLMTLTPRPLEITKMVDPLNAIILKKKSFTGISKNRNCVYQAQFSPHDQNLVLSCSGNSYASLFDIRLPSGKNQNNFLVHSGLEALTCDFNKYRPYVVATGGVDNAIRIWDIRMLNKNESATIKRTVPGQLHNSSCINEIPNAHGLAIRKVTWSPHHSNILMSASYDMTCRIWRDLSNDGAKETYKTNSTDATKGSIFNFTQHSEFVFGADWSLWGKPGYVASTAWDGNLFVWNGLG”: the protein production entry is recorded as “failed”. Take “MLRYSFRSIKRNFASSLLLVGALVAIFVASPLSFSMLSSIQAEVDANIKQYARGSYDLLIRPIGTQTAVETTLGVVEENYLALGEGGISLNEWETIKALDGVEVAAPVASLGYFAGETHTVAVEFPNNSSFIEGRFQTSDGLHTYPLQAGGSYYVLEQEGYYYGYEYVQQGNEEIPGSGGPPFFSMPVTYHLIVGIDQQEEEKLTGFNFSALNNSIPEGFRFYFDLDVERHIKIIYLKDATTPLTVQVDVAPIDWETADTERLKDELGLTYDEPLFISEQFPSLFTQFQDRHIGPIETYTFDLSEHMPPFSYDPVSLDYDGSMHEPIENAYGVSESSRFYQASPIDYDIQAGGRLKVKQVGDYEGIPIYRTIQEQGGAAYELHGIGKIPFLLYPVGHFTTAEYEHSLSASPLGIYQQAPSVLSDGTMLHETIAPGSFVNAPAHGLMALEDAAFIKGDAPIDAIRIRVAGITAYDQEAVDKMSQVATEIAKLGDYQIDVIAGASPAPMTMDVEGIGEVVQPWTSLGAAATIRDGWNGTNVLIAGLFLFVSISYLANRFHFRRHTKKEEQELLLDLGWKKRHIRWLYLMENSSLIFLSAAIASLILLAYIWLYQADWFILIFFVAVVVLTFLFSLIYVSMMRGVQKISFRRLKGQTVWIRNLFYYRRLLTLSIIQLASVALLLAFVVSSIAATIAQTGGTYLGVYINDAVFIPLVSIMVAALFLAVLTVGESTSAFLLLRKEELQTLRDIGWRIKDVHRLCLKESAVWTTGAIMGGVVISLLTVSVFYSLSLSFLLFAGVAVVLLSSIAIVTAGGMIRSSLRKMA”: the protein production entry is given as “failed”. The result for “MLSERAAQMVIFSALIKHKNFTVAAKSLGVSVSHVSKQLSQLEESLGIKLVQRTTRSFTPTEAGKTFYHHCEQVVQAVSSATLEMESQRDEVAGLVRLGLSQSFGTLHIIPAIQELRELYPQLQVEVHLFDYKVDMLAEGLDLWVTNNEHLPEGYIAQRLTDCQFVVAASPDYLLKYDTPTEPNDLSLHNCLIYRSWERDYTGWAFTKGQQELNVKVSGNYSVDLAEAVRDAAIAGWGIAYLATYLLGDEFRTGKLIQLLPDWKASQSMPFYAVYPSRQHMPKKISAVINFIKQKIGNPCHWDQRLAPYISIPK” reads “failed”. As to “MLSHHPSLHFLSKLSTLSLQRNQEKQALVEELEERIELLNRLETTLSKTLNCFPEELVTFLKNNDSVTSLAEFAAECNVDPLRDTQTELLIAASQKLERWWQVEKLVEEEKKRNYEAEKLLKDFEAFKKDLETVITGFKAEQSSATQASVDQEKKALEKLKKAFESYEANSSCQPVDVTHEEVVELGKKVTLLEAQVIEEQLQLDTYQMLPQDPVLARIVLDEAKEKLKEFSAERDSILRNMKFV”, the protein production result is “failed”.
